We go through 30 molecules from patent US20210023171A1 (published 2021).

No end group written: not given here. *: point of attachment. DOTA = O=C(O)CN1CCN(CC(=O)O)CCN(CC(=O)*)CCN(CC(=O)O)CC1 A value given as a limit tells only on which side of the number the result lay.

The target of experiment [1] is T1, αvβ3 integrin on cells (U87MG glioblastoma cells; K562-αvβ3 cells) (UniProt P06756 31-1048; P05106 27-788).
T1 construct: whole, on cells; also called cell surface αvβ3 integrin
Briefly: competing off ^125I-echistatin, U87MG cells.

The target of experiment [2] is T1, αvβ3 integrin on cells (U87MG …). Briefly: competition with ^125I-echistatin on U87MG cells (also express αvβ5, α5β1); unlabeled peptide.
For experiment [3] the target is unchanged. Briefly: competition with ^125I-echistatin on U87MG cells.
In experiment [4] the target is T2, αvβ3 integrin (soluble / detergent-solubilized) (UniProt P06756 31-1048; P05106 27-788).
T2 construct: also called integrin αvβ3; soluble αvβ3 integrin
Briefly: competition with ^125I-echistatin on plate-coated detergent-solubilized integrin.

The target of experiment [5] is T3, αvβ5 integrin (soluble / detergent-solubilized) (UniProt P06756 31-1048; P18084 24-799). The experiment is described as above.
Experiment [6] addresses α5β1 integrin (detergent-solubilized) (UniProt P08648 42-1049; P05556 21-798). The description is as above.
Experiment [7] deals with αiibβ3 integrin (soluble / detergent-solubilized) (UniProt P08514 32-1039; P05106 27-788). Described as above.
Experiment [8] deals with T2, αvβ3 integrin (soluble / …). Briefly: yeast display flow cytometry estimate; integrin not given.
In experiment [9] the target is T3, αvβ5 integrin (soluble / …). Briefly: yeast display, flow cytometry.
Experiment [10] addresses T1, αvβ3 integrin on cells (U87MG …). Briefly: approximate value quoted with the imaging results; U87MG competition assay presumed.
In experiment [11] the target is T2, αvβ3 integrin (soluble / …). Briefly: yeast display, flow cytometry, 50 nM integrin, gross estimate.
The target of experiment [12] is T1, αvβ3 integrin on cells (U87MG …). Briefly: competition with ^125I-echistatin on U87MG cells; Cy5.5-labeled peptide.
The target is the same in experiment [13]. Briefly: cell-based or functional assay.
Experiment [14] deals with T4, αiibβ3 integrin on K562 cells stably transfected with αiibβ3 (UniProt P08514 32-1039; P05106 27-788).
T4 construct: whole, on cells; also called K562-αiibβ3; K562-αiiβ3
Briefly: titration on K562-αiibβ3 cells up to 5 µM, not saturated.

For experiment [15], the target named is T1, αvβ3 integrin on cells (U87MG …). Briefly: direct equilibrium titration on U87MG cells, anti-His flow cytometry.
Experiment [16] has the same target. Briefly: direct equilibrium titration on K562-αvβ3 cells, anti-His flow cytometry. (Flow cytometry measures light scatter and fluorescence of single cells or particles in a stream.)

T1 sequence (P06756 31-1048, chain 1 of 2): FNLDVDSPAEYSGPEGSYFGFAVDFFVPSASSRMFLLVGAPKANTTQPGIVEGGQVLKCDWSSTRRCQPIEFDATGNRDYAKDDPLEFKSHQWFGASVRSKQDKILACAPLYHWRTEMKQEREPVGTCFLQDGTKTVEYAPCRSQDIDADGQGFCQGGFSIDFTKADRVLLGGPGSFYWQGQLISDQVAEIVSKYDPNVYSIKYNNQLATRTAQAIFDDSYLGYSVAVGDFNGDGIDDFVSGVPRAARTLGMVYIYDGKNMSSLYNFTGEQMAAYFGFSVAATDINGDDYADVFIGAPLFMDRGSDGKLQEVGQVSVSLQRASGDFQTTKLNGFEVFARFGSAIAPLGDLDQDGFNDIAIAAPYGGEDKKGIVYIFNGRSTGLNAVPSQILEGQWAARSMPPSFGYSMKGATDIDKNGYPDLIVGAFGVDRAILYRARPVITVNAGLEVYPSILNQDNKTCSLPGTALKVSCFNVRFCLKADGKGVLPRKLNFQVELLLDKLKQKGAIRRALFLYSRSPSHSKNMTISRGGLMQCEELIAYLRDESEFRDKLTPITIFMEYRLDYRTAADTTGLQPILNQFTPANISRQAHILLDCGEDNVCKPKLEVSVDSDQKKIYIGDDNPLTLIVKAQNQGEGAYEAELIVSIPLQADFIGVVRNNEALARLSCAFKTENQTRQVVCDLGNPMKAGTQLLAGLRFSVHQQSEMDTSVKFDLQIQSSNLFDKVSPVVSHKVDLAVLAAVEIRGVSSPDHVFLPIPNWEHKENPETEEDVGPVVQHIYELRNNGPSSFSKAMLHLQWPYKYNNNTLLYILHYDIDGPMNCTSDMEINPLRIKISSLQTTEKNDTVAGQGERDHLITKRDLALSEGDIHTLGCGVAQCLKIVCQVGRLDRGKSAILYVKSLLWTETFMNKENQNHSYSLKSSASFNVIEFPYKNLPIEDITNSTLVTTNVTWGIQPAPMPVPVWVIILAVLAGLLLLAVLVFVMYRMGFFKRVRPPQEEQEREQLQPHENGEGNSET
T1 sequence (P05106 27-788, chain 2 of 2): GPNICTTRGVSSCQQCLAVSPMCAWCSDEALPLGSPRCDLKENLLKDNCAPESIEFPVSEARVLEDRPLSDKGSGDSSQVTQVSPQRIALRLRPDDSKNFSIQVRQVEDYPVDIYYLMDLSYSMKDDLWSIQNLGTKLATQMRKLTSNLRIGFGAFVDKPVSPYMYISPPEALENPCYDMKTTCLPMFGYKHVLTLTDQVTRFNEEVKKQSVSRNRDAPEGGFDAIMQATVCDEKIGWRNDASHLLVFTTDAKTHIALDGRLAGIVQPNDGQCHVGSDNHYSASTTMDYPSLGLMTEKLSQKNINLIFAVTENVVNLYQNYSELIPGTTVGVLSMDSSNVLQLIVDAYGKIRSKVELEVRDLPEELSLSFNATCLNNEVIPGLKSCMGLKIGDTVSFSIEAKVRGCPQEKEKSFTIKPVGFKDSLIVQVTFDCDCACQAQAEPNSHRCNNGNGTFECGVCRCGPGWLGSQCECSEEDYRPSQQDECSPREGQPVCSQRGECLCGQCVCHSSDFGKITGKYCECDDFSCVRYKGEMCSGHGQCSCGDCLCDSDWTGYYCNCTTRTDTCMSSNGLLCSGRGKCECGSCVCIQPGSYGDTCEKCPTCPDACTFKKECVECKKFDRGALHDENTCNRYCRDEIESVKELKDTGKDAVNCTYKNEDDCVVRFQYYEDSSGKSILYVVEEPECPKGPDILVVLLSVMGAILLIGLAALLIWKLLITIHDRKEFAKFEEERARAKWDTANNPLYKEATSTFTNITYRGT
T2 sequence (P06756 31-1048, chain 1 of 2): as the sequence (P06756 31-1048, chain 1 of 2) above
T2 sequence (P05106 27-788, chain 2 of 2): as the sequence (P05106 27-788, chain 2 of 2) above
T3 sequence (P06756 31-1048, chain 1 of 2): as the sequence (P06756 31-1048, chain 1 of 2) above
T3 sequence (P18084 24-799, chain 2 of 2): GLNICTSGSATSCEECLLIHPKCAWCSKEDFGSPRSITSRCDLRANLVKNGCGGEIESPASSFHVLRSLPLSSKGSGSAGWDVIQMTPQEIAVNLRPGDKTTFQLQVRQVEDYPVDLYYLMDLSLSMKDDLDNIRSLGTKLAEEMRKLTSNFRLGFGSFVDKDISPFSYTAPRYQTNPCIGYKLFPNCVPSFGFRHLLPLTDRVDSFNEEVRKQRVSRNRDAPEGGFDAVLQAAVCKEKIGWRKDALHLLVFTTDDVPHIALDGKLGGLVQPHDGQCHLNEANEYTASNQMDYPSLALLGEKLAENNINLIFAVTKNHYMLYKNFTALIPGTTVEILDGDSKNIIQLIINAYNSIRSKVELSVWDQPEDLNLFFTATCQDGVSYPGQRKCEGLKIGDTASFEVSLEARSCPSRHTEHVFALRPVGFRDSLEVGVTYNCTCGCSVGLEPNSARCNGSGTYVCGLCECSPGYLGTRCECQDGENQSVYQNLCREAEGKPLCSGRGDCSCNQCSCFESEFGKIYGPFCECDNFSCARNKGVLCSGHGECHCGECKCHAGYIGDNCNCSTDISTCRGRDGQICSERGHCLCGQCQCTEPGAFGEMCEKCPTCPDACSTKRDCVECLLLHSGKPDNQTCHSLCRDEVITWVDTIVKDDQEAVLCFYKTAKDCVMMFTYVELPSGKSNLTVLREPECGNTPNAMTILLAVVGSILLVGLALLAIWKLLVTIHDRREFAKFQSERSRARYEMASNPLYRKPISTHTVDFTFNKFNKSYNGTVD
Sequence of α5β1 integrin (detergent-solubilized) (P08648 42-1049, chain 1 of 2): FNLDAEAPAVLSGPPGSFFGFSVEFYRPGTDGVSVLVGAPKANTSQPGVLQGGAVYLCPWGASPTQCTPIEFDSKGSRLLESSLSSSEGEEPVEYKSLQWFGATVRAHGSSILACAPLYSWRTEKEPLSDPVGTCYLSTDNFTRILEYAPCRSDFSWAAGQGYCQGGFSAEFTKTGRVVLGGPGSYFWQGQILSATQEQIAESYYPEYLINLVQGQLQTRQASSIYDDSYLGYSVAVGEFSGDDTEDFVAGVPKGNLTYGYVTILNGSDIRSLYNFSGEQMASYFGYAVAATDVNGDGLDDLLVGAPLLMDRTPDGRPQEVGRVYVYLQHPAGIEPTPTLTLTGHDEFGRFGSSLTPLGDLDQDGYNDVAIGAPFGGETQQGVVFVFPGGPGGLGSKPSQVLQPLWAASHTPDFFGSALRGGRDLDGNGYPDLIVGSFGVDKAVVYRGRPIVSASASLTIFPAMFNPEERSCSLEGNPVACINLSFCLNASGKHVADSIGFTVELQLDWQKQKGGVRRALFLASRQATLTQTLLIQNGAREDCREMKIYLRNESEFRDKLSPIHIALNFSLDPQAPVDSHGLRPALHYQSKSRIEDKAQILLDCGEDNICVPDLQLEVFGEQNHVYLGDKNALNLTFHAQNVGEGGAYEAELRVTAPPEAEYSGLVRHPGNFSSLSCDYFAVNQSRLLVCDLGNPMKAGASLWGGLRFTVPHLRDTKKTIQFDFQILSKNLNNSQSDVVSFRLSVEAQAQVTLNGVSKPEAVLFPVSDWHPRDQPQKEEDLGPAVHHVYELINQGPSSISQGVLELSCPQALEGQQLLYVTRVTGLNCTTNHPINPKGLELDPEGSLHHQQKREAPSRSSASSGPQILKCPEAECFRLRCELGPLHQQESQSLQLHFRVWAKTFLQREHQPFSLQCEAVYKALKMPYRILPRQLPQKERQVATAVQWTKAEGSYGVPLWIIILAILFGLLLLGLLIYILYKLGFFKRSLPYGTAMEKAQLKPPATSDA
Sequence of α5β1 integrin (detergent-solubilized) (P05556 21-798, chain 2 of 2): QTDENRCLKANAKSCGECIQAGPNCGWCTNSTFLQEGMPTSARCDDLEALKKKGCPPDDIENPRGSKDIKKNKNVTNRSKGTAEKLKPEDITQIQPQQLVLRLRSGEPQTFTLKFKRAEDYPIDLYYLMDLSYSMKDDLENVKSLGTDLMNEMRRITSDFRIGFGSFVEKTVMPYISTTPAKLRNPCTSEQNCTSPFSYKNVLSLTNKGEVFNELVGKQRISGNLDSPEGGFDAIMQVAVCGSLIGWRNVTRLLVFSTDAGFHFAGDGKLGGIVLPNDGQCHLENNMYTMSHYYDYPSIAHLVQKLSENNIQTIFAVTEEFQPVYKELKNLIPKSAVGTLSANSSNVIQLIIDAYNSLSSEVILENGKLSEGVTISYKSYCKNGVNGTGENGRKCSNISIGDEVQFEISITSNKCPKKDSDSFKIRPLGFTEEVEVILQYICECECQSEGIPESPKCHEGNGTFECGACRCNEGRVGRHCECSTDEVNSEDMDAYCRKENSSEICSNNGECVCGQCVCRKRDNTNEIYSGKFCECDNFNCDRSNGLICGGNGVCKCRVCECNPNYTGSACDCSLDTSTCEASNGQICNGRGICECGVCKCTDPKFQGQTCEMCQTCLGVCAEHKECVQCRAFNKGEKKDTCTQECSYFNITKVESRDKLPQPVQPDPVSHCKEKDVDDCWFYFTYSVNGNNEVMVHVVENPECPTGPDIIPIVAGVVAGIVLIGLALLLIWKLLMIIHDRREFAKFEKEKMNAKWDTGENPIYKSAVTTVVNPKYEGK

In the case of GCVRLHESCLGQQVPCCDPAATCYCESRGDVVRKCYCR (ends and bridges not checked; cysteine pairing not given here) [6F (synthesized Mini-RGD-AgRP peptide)], the IC50 (in general, the midpoint of a concentration-inhibition curve) in experiment [1] stood at 410 nM. That is a sub-micromolar value.

Consider GCVTGRGDSPASSCSQDSDCLAGCVCGPNGFCG (also called FN-RGD2; RGD-EETI #3) [Loop-grafted FN-RGD (synthetic, soluble)], for which, in experiment [2], the IC50 was 370 nM.

B1: FN-RDG (EETI-based polypeptide with a scrambled RDG sequence, negative control) (peptide)
chain: GCVTGRDGSPASSCSQDSDCLAGCVCGPNGFCG
notes: Inferred; also called scrambled FN-RDG; FN-RDG2
For the molecule B1, the binding result is “no binding” in experiment [3]; “no binding (tested: 50 nM)” in [4]; “no binding (tested: 50 nM)” in experiment [5]; “no binding (tested: 50 nM)” in [6]; “no binding (tested: 50 nM)” in [7].

On to {DOTA}-GCVTGRDGSPASSCSQDSDCLAGCVCGPNGFCG (also: cystine-knot disulfides, pairing not given here) [DOTA-conjugated FN-RDG2], for which the binding result in [4], in experiment [5], in [6] and in experiment [7] was “no binding” in each case.

Consider GCVTGRGDSPASSCKQDSDCLAGCVCGPNGFCG (also called FN-RGD; RDG-EETI #3) [RGD-EETI #3 (yeast-displayed)], for which, in experiment [8], the Kd (commonly a measure of binding affinity in units of concentration) was 100 to 200 nM.

As for GCVRLHESCLGQQVPCCTVTNSRCYCYGRGDNDLRCYCR [AgRP 7C loop 3 clone 3-5 (yeast-displayed)], in experiment [9], the binding result is “no binding (tested: 50 nM)”.

Take GCVRLHESCLGQQVPCCSRSDAHCYCYGRGDNDLRCYCR (ends and bridges not checked; cysteine pairing not given here) [AgRP 7C loop 3 clone 3-2 (yeast-displayed)]: the binding result in experiment [9] is “no binding (tested: 50 nM)”.

GCVRLHESCLGQQVPCCTSKQHHCYCYGRGDNDLRCYCR [AgRP 7C loop 3 clone 3-6 (yeast-displayed)]: the binding result in experiment [9] is reported as “no binding (tested: 50 nM)”.

GCVRLHESCLGQQVPCCQGREQSCYCYGRGDNDLRCYCR [AgRP 7C loop 3 clone 3-4 (yeast-displayed)]: in [9], the binding result is recorded as “no binding (tested: 50 nM)”.

On to {DOTA}-GCPQGRGDWAPTSCSQDSDCRAGCVCGPNGFCG (cysteine pairing not given here, also called Cu-DOTA-knottin 2.5D) [DOTA-conjugated knottin peptide 2.5D], for which the IC50 in experiment [10] is ~20 nM.

For GCTIGRGDWAPSECKQDSDCLAGCVCGPNGFCG [1.5B (yeast-displayed EETI-based variant)], the Kd in experiment [11] was ~50 nM.

GCHVGRGDWAPEECKQDSDCQAGCVCGPNGFCG [2.5A (yeast-displayed EETI-based variant)]: the Kd in experiment [11] is ~50 nM.

For the molecule GCTIGRGDWAPSECSQDSDCLAGCVCGPNGFCG (also called RGD-miniprotein 1.5B) [Miniprotein 1.5B (synthetic, soluble)], the IC50 in [2] is 13 nM.

With {Cy5.5}-GCVTGRGDSPASSCSQDSDCLAGCVCGPNGFCG (cysteine pairing not given here, also called Cy5.5-labeled FN-RGD) [Cy5.5-labeled loop-grafted FN-RGD], in experiment [12], the IC50 turned out to be 33.9 nM. This counts as double-digit nanomolar.

B2: Miniprotein 2.5F (synthetic, soluble) (peptide)
chain: GCPRPRGDNPPLTCSQDSDCLAGCVCGPNGFCG
notes: also called knottin peptide 2.5F; RGD-miniprotein 2.5F
For the molecule B2, the IC50 in experiment [2] is 26 nM.

For {Cy5.5}-GCPQGRGDWAPTSCSQDSDCRAGCVCGPNGFCG (cysteine pairing not given here) [Cy5.5-labeled Miniprotein 2.5D], the IC50 in [12] came out at 4.2 nM.

In experiment [1], GCVRLHESCLGQQVPCCDPAATCYCVERGDGNRRCYCR (ends and bridges not checked; cysteine pairing not given here) [6E (synthesized Mini-RGD-AgRP peptide)] had an IC50 of 130 nM.

With GCPQGRGDWAPTSCKQDSDCRAGCVCGPNGFCG [2.5D (yeast-displayed EETI-based variant)], the Kd in experiment [11] was ~50 nM.

B3: Miniprotein 2.5D (synthetic, soluble) (peptide)
chain: GCPQGRGDWAPTSCSQDSDCRAGCVCGPNGFCG
notes: also called knottin peptide 2.5D; RGD-miniprotein 2.5D
Consider B3, for which the IC50 in experiment [3] was 19 nM; in [2], 16 nM.

Turning to {Cy5.5}-GCTIGRGDWAPSECSQDSDCLAGCVCGPNGFCG (cysteine pairing not given here) [Cy5.5-labeled Miniprotein 1.5B], the IC50 in experiment [12] is 6.4 nM. This counts as single-digit nanomolar.

As for QCESGPCCRNCKFLKEGTICKRARGDDMDDYCNGKTCDCPRNPHKGPAT (ligand, ends and bridges not checked; also: Cy5.5-labeled, site not given here) [Cy5.5-labeled echistatin], the IC50 in [12] is 2.6 nM.

{DOTA}-GCVTGRGDSPASSCSQDSDCLAGCVCGPNGFCG (cysteine pairing not given here) [DOTA-conjugated FN-RGD2]: in experiment [10], the IC50 was ~400 nM.

On to GCTGRGDSPASSKCKQDSDCLAGCVCGPNGFCG [RGD-EETI #2 (yeast-displayed)], for which the “affinity relative to RGD-EETI #3” value in [8] was ~0.5 fold.

Take {Cy5.5}-GCPRPRGDNPPLTCSQDSDCLAGCVCGPNGFCG (cysteine pairing not given here) [Cy5.5-labeled Miniprotein 2.5F]: the IC50 in experiment [12] was 3.4 nM.

Turning to {DOTA}-GCPRPRGDNPPLTCSQDSDCLAGCVCGPNGFCG (cysteine pairing not given here) [DOTA-conjugated knottin peptide 2.5F], the IC50 in experiment [10] is ~20 nM.

Turning to GCVRLHESCLGQQVPCCSGLGNRCYCYGRGDNDLRCYCR (ends and bridges not checked; cysteine pairing not given here) [AgRP 7C loop 3 clone 3-3 (yeast-displayed)], the binding result in [9] is given as “no binding (tested: 50 nM)”.

In the case of GCVRLHESCLGQQVPCCDPAATCYCQYRGDGMKHCYCR (ends and bridges not checked; cysteine pairing not given here) [3F (synthesized Mini-RGD-AgRP peptide)], in experiment [1], the IC50 was determined as 880 nM.

B4: recombinant engineered AgRP peptide 6C (FLAG and hexahistidine tagged) (peptide)
chain: DYKDDDDKGCVRLHESCLGQQVPCCDPAATCYCTGRGDEKLRCYCRHHHHHH
In the case of B4, the “adhesion (IC50; nM) of K562-αvβ3 cells to vitronectin-coated wells” value (shortened to “adhesion (IC50; nM) of K562-αvβ3 cells”) in [13] is 650 nM. Moreover, the Kd in [14] was > 100 nM; in experiment [15], 13 nM; in [16], 15 nM.

B5: recombinant engineered AgRP peptide 7E (FLAG and hexahistidine tagged) (peptide)
chain: DYKDDDDKGCVRLHESCLGQQVPCCDPAATCYCVGRGDDNLKCYCRHHHHHH
With B5, the “adhesion (IC50; nM) of K562-αvβ3 cells” value in experiment [13] came out at 9.9 nM. In addition, the Kd in experiment [14] was > 100 nM; in experiment [15] it was 1.4 nM; in experiment [16], 1.6 nM.

B6: recombinant engineered AgRP peptide 7J (FLAG and hexahistidine tagged) (peptide)
chain: DYKDDDDKGCVRLHESCLGQQVPCCDPAATCYCEGRGDRDMKCYCRHHHHHH
notes: also called 7J (6B); 6B
On to B6, for which, in [13], the “adhesion (IC50; nM) of K562-αvβ3 cells” value was determined as 200 nM. For the same molecule, the Kd in experiment [14] is > 100 nM; in experiment [15], 8.3 nM; in experiment [16], 16 nM.
